{
  "source": "patent US7871782B2",
  "about": "“Specific binding members against synaptophysin” (The University Court of the University of Aberdeen, priority 2004, dated 2011)",
  "molecules": {"B1": {"name": "FITC-C1-3 scAb: C1-3 scAb labelled with FITC (conjugate)", "scFv": "MAEVQLLESGGGLVQPGGSLRLSCAASGFTFSSYAMSWVRQAPGKGLEWVSTIAASGPSTGYADSVKGRFTISRDNSKNTLYLQMNSLRAEDTAVYYCAKTTAKFDYWGQGTLVTVSSGGGGSGGGGSGGGGSTDIQMTQSPSSLSASVGDRVTITCRASQSISSYLNWYQQKPGKAPKLLIYSASRLQSGVPSRFNGSGSGTDFTLTISSLQPEDFATYYCQQLQRKPTTFGQGTKVEIKRGAAAPSVFIFPPSDEQLKSGTASVVCLLNNFYPREAKVQWKVDNALQSGNSQESVTEQDSKDSTYSLSSTLTLSKADYEKHKVYACEVTHQGLSSPVTKSFNRGESHHHHHH"}},
  "key": {"[1]": {"tested_on": "HSCs", "assay": "Effect of scAb incubation on HSC viability (attachment, protein assay)", "format": "cell-based, human", "conditions": "3 hours incubation, 5 μg scAb or indicated chemical, FIG. 12", "method": "Effect of scAb incubation on HSC viability. HSCs seeded into 24 well plates were incubated in 0.3 mls culture medium containing 5 μg scAb or the indicated-chemical. Cells were incubated for 3 hours prior to removal of medium and washing with 1×PBS. Attachment (as a measure of viability) was determined by a direct protein assay in the culture wells."}, "[2]": {"tested_on": "human HSCs", "assay": "HSC viability with gliotoxin and C1-3-gliotoxin conjugate", "format": "cell-based", "conditions": "1.5 uM gliotoxin; 10 ug C1-3-gliotoxin conjugate in 500 ul medium; FIG. 14", "method": "HSC viability. Human HSCs in 24 well plate culture were treated with 500 ul medium containing either DMSO vehicle; 1.5 uM gliotoxin (750 pmoles); 20 ul C1-3 scAb at 1 mg/ml (20 ug C1-3 scAb); or 20 ul C1-3-gliotoxin conjugate at 0.5 mg/ml (10 ug C1-3 scAb-250 pmoles C1-3 scAb*/1000 pmoles gliotoxidn). *0.5 mg C1-3 protein/ml stock=12.5 uM=12.5 nmoles/ml=12.5 pmol/ul"}, "[3]": {"tested_on": "human HSCs", "assay": "Uptake of scAb and conjugates by human HSCs in culture (Western blot of medium)", "format": "cell-based", "conditions": "5 μg scAb in 0.3 mls medium, FIG. 11", "method": "Uptake of C1-3 scAb and C1-3-conjugates by human HSCs in culture. HSCs seeded into 24 well plates were incubated in 0.3 mls culture medium containing 5 μg scAb. Samples of medium were taken at the indicated times and subjected to Western blotting to detect scAb using HRP-conjugated anti-human Cκ light chain antibody (UPPER PANEL) and serum albumin (LOWER PANEL) as a loading control. Results typical of 4 separate experiments."}, "[4]": {"tested_on": "HepG2 cells", "assay": "Fluorescence binding to cells", "format": "cell-based"}, "[5]": {"tested_on": "COS-7 cells", "assay": "Fluorescence binding to cells", "format": "cell-based"}, "[6]": {"tested_on": "hepatic stellate cell and hepatocytes co-cultured", "format": "cell-based, human", "method": "For co-culture experiments, hepatic stellate cells were seeded into hepatocytes cultures (1×10^3 cells per well) and cultured for 24 h prior to experimentation. The C1-3 or FITC-C1-3 scAb was incubated as outlined for pure hepatic stellate cell cultures except that after 1 hour incubation and washing, the cells were harvested by trypsinisation and centrifugation at 1000 rpm for 5 min. The cell pellet was then resuspended in 0.4% formaldehyde/10^6 cells, applied onto glass slides by cytocentrifugation and mounted with Vectashield containing DAPI. Slides were viewed by fluorescence microscopy as before."}, "[7]": {"tested_on": "human HSC", "assay": "FACS analysis of human HSC cultures", "format": "cell-based", "conditions": "co-staining under native conditions prior to fixing, 1 hour 37° C., FIG. 10", "method": "FACS analysis of human HSC incubated without (UPPER PANEL) or with (LOWER PANEL) primary antibodies—i.e. FITC-C13 scAb (FITC) and a mouse monoclonal antibody to α-smooth muscle actin (αsma-APC). Anti-α-smooth muscle actin antibody was detected using a biotin conjugated secondary antibody followed by fluorophore-streptavidin conjugate incubation as outlined in the Methods section. Figures represent the percentage of cells in each quadrant. Data are typical of 3 separate cell preparations.\nFITC-C1-3 scAb was added to culture medium (200 μg/10 mls) and incubated with a confluent (10 cm diameter dish) culture of HSCs for 1 hour at 37° C. The medium was then removed and the cells were washed in PBS. The cells were then detached from the culture substratum non-enzymatically using cell dissociation solution (Sigma, Poole, UK), pelleted by centrifugation and fixed/permeabilised using BD cytofix/cytoperm (BD Biosciences, Oxford, UK). After 15 minutes, the cells were washed in 0.5 mls 1× wash/perm buffer (BD Biosciences, Oxford, UK) and incubated with a mouse anti-α-smooth muscle actin monoclonal antibody (Sigma, Poole, UK) diluted in 1× wash/perm buffer. […] The cells were analysed by flow cytometry (LSR I, BD, Oxford, UK). […]"}, "[8]": {"tested_on": "human hepatic stellate cells", "assay": "Fluorescence microscopy of FITC-labelled scAb with cells", "format": "cell-based", "method": "(§1) FITC-C1-3 scAb was tested for its ability to interact with hepatic stellate cells in culture by fluorescence microscopy. Human hepatic stellate cells were seeded (1×10^3 cells per chamber) on chamber slides (Nunclon, Naperville) in complete medium prior to experimentation. Cells were washed twice in phosphate buffered saline (PBS) and incubated in 500 μl Hepes/HBSS buffer (0.14M NaCl, 5.4 mM KCl, 0.34 mM Na2HPO4, 0.94 mm KH2PO4, 5.6 mM glucose, 1 mM CaCl2, 6 mM HEPES, 4 mM NaHCO3 pH7.4) containing 10 μg scAb or FITC-C1-3 scAb for 1 h at room temperature in the dark. The cells were then washed in PBS and mounted with Vectashield mounting medium (Vector laboratories, Burlingame, Calif.) containing 4′,6′ diamindino-2 phenylindole (DAPI) to stain cell nuclei and coverslips applied. Florescence microscopy was carried out using a Zeiss Axeola II microscope with a Photometrics Sensis camera, and data captured using the Smart Capture programme. Human hepatocytes (UK Human Tissue Bank) were originally cultured in a collagen-coated 24 well plate (1×10^5/well) and maintained in William's medium E supplemented with 80 units/ml penicillin and 80 μg/ml streptomycin."}, "[9]": {"tested_on": "human hepatocytes", "assay": "Fluorescence microscopy of FITC-labelled scAb with cells", "format": "cell-based", "method": "as §1"}, "[10]": {"tested_on": "human HSCs", "assay": "Fluorescence microscopy without fixation: effect of peptides and monensin on FITC-C1-3 scAb binding", "format": "cell-based", "conditions": "10 μg scAb, 1 hour, no fixation, FIG. 13", "method": "Effect of synaptophysin peptides and monensin on FITC-C1-3 scAb binding to human HSCs. Human HSCs seeded into 24 well plates were washed and incubated in 500 μl Hepes/HBSS per well for 1 hour containing either: 10 μg C1-3 scAb; 10 μg FITC-C1-3 scAb; 10 μg FITC-C1-3 scAb and 0.25 nmoles of the target peptide; 10 μg FITC-C1-3 scAb and 2.5 nmoles of the target peptide; 10 μg FITC-C1-3 scAb and 25 nmoles of the target peptide; 10 μg FITC-C1-3 scAb and 25 nmoles of the target peptide P1; 10 μg FITC-C1-3 scAb and 2.5 μM monensin; 10 μg FITC-C1-3 scAb and 15 μM monensin; 10 μg FITC-3A8 scAb (scAb raised to microcystin and not expected to bind to HSCs). Cells incubated with monensin were preincubated for 10 minutes. Just prior to addition of scAb, the medium was changed and cells were re-dosed with monensin. […] Bar=μm. Monen=monensin; P1=the […] peptide (SEQ ID NO 27); P2=the target peptide.\nHSCs seeded into 24 well plates were washed with Hepes/HBSS and then incubated at 37° C. in 500 μl/well Hepes/HBSS containing 10 μg scAb with or without additional compounds. After 1 hour, the cells were washed 3 times with 500 μl Hepes/HBSS. Cells were analysed using an Axiovert 100 microscope (Zeiss, Germany) using filter set #9 (BP 450-490 nm; LP 515 nm)."}},
  "data": [
    {"molecule": "CN1C(=O)[C@]23CC4=CC=C[C@H](O)[C@H]4N2C(=O)[C@@]1(CO)SS3", "note": "[gliotoxin]", "values": [
      {"measurement": "toxicity to HSCs (attachment as measure of viability)", "setting": "[1]", "result": "kill HSCs"},
      {"measurement": "killing of human HSCs", "setting": "[2]", "result": "killed human HSCs"}
    ]},
    {"molecule": "B1", "values": [
      {"measurement": "association with HSCs: change of culture medium concentration of scAb", "setting": "[3]", "result": "reduction in culture medium concentrations"},
      {"measurement": "fluorescence binding to HepG2 cells", "setting": "[4]", "result": "not detected"},
      {"measurement": "fluorescence binding to COS-7 cells", "setting": "[5]", "result": "not detected"},
      {"measurement": "green fluorescence in hepatic stellate cell/hepatocyte co-cultures", "setting": "[6]", "result": "Fluorescence was observed on stellate cells whilst hepatocytes consistently failed to display detectable levels of associated green fluorescence"},
      {"measurement": "binding to α-smooth muscle actin positive human HSCs (FACS)", "setting": "[7]", "result": "all the cells bound C1-3 scAb"},
      {"measurement": "green fluorescence associated with hepatic stellate cells", "setting": "[8]; 10 μg scAb, 1 h, room temperature", "result": "fluorescence was associated with hepatic stellate cells"},
      {"measurement": "location of fluorescence in hepatic stellate cells", "setting": "[8]; mounting medium with DAPI", "result": "fluorescence was located around the nuclear and cell membranes"},
      {"measurement": "green fluorescence associated with human hepatocytes", "setting": "[9]", "result": "no associated green fluorescence"},
      {"measurement": "association of FITC-labelled scAb with HSCs", "setting": "[10]", "result": "associated with HSCs"}
    ]}
  ]
}
